# Experiments:
# Type in all cases: in vivo
# [1] = tested on: Arabidopsis thaliana T1 plants; assay: Mesotrione tolerance of transgenic Arabidopsis thaliana T1 plants (spray, bleached leaf area grade, damage score); parameters: Scores: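 damage score 0-100 computed as Σ(N×S)/(T×M)×100 over grades 0-3 with higher meaning more damage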; conditions: for Resistance evaluation / Classification and statistics of the grade of pesticide damage: Grade 0 / Classification and statistics of the grade of pesticide damage: Grade 1 / Classification and statistics of the grade of pesticide damage: Grade 2 / Classification and statistics of the grade of pesticide damage: Grade 3 / Scores: 7 DAT, Table 3; for Classification and statistics of the grade of pesticide damage: Grade 0 / Classification and statistics of the grade of pesticide damage: Grade 1 / Classification and statistics of the grade of pesticide damage: Grade 2 / Classification and statistics of the grade of pesticide damage: Grade 3: number of plants; for Scores: pesticide damage score 0-100
# Method in brief: (§1)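 Damage was assessed by bleaching grade (0 none; 1 <50%; 2 >50%; 3 100% of leaf area) one week after spraying. Sprays on 18-day-old T1 and wild-type plants used field-rate multiples: topramezone 25–200, isoxaflutole 35–280, mesotrione 52.5–420 g ai/ha.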
# [2] = tested on: Arabidopsis thaliana T1 plants; assay: Isoxaflutole tolerance of transgenic Arabidopsis thaliana T1 plants (spray, bleached leaf area grade, damage score); conditions: for Grade 0 (classification and statistics of the grade of pesticide damage; number of plants) / Grade 1 (classification and statistics of the grade of pesticide damage; number of plants) / Grade 2 (classification and statistics of the grade of pesticide damage; number of plants) / Grade 3 (classification and statistics of the grade of pesticide damage; number of plants): 16 plants; for Classification and statistics of the grade of pesticide damage: Grade 0 / Classification and statistics of the grade of pesticide damage: Grade 1 / Classification and statistics of the grade of pesticide damage: Grade 2 / Classification and statistics of the grade of pesticide damage: Grade 3: number of plants;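 for Scores: Weighted damage index from 0 to 100 where higher means more damage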
# Method in brief: as §1
# [3] = tested on: Arabidopsis thaliana T1 plants; assay: Topramezone tolerance of transgenic Arabidopsis thaliana T1 plants (spray, bleached leaf area grade, damage score); conditions: for Classification and statistics of the grade of pesticide damage: Grade 0 / Classification and statistics of the grade of pesticide damage: Grade 1 / Classification and statistics of the grade of pesticide damage: Grade 2 / Classification and statistics of the grade of pesticide damage: Grade 3: number of plants; for Grade 0 (classification and statistics of the grade of pesticide damage; number of plants) / Grade 1 (classification and statistics of the grade of pesticide damage; number of plants) / Grade 2 (classification and statistics of the grade of pesticide damage; number of plants) / Grade 3 (classification and statistics of the grade of pesticide damage; number of plants): 16 plants
# Description: T1 transformants were initially selected from the untransformed seeds using a glufosinate selection scheme. The Arabidopsis thaliana T1 plants (AsHPPD-02) into which the AsHPPD-02 nucleotide sequence was introduced, the Arabidopsis thaliana T1 plants (AsHPPDm-F372A-02) into which the AsHPPDm-F372A-02 nucleotide sequence was introduced, the Arabidopsis thaliana T1 plants (AsHPPDm-F383W-02) into which the AsHPPDm-F383W-02 nucleotide sequence was introduced, the Arabidopsis thaliana T1 plants (AsHPPDm-F372A-F383W-02) into which the AsHPPDm-F372A-F383W-02 nucleotide sequence was introduced, the Arabidopsis thaliana T1 plants (DBN11726N) into which the control recombinant expression vector DBN11726N was introduced, and the wild-type Arabidopsis thaliana plants (CK) (18 days after sowing) were sprayed respectively with topramezone at three concentrations (100 g ai/ha (four-fold field concentration, 4×), 200 g ai/ha (eight-fold field concentration, 8×), and 0 g ai/ha (water, 0×)), isoxaflutole at three concentrations (140 g ai/ha (two-fold field concentration, 2×), 280 g ai/ha (four-fold field concentration, 4×), and 0 g ai/ha (water, 0×)), and mesotrione at three concentrations (210 g ai/ha (two-fold field concentration, […]), 420 g ai/ha (four-fold field concentration, 4×), and 0 g ai/ha (water, 0×)), to determine the tolerance of Arabidopsis thaliana to the herbicides. The degree of damage caused by the herbicide was measured for each plant according to the proportion of bleached leaf area (the proportion of bleached leaf area=bleached leaf area/total leaf area×100%) 7 days after spraying (7 DAT): the case where there is basically no bleached phenotype is defined as grade 0, the case where the proportion of bleached leaf area is less than 50% is defined as grade 1, the case where the proportion of bleached leaf area is more than 50% is defined as grade 2, and the case where the proportion of bleached leaf area is 100% grade is defined as grade 3.
# According to the method as described above in point 6 of Example 1, the aforementioned Arabidopsis thaliana T1 plants and wild-type Arabidopsis thaliana plants (CK) (18 days after sowing) were sprayed respectively with topramezone at three concentrations (25 g ai/ha (one-fold field concentration, 1×). 100 g ai/ha (four-fold field concentration, 4×), and 0 g ai/ha (water, 0×)), isoxaflutole at three concentrations (35 g ai/ha (half-fold field concentration, 0.5×). 70 g ai/ha (one-fold field concentration, 1×), and 0 g ai/ha (water, 0×)), and mesotrione at three concentrations (52.5 g ai/ha (half-fold field concentration, 0.5×), 105 g ai/ha (one-fold field concentration, 1×), and 0 g ai/ha (water, 0×)) to detect the tolerance of Arabidopsis thaliana to the herbicides.
# According to the method as described above in point 6 of Example 1, the aforementioned Arabidopsis thaliana T1 plants and wild-type Arabidopsis thaliana plants (CK) (18 days after sowing) were sprayed with topramezone at three different concentrations (i.e., 100 g ai/ha (four-fold field concentration, 4×), 200 g ai/ha (eight-fold field concentration, 8×) and 0 g ai/ha (water, 0×)), isoxaflutole at three different concentrations (i.e., 140 g ai/ha (two-fold field concentration, 2×), 280 g ai/ha (four-fold field concentration, 4×) and 0 g ai/ha (water, 0×)), and mesotrione at three different concentrations (i.e., 210 g ai/ha (two-fold field concentration, 2×), 420 g ai/ha (four-fold field concentration, 4×) and 0 g ai/ha (water, 0×)) respectively to detect the herbicide tolerance of Arabidopsis thaliana. […]
# [4] = mesotrione 210 g ai/ha (two-fold field concentration)
# [5] = isoxaflutole 140 g ai/ha (2x field concentration), Arabidopsis thaliana T1 plants
# [6] = isoxaflutole 140 g ai/ha (2×), 7 DAT, Table 2
# [7] = isoxaflutole 280 g ai/ha (4x field concentration), Arabidopsis thaliana T1 plants
# [8] = isoxaflutole 280 g ai/ha (4×), 7 DAT, Table 2
# [9] = topramezone 100 g ai/ha (4×), 7 DAT, Table 1
# [10] = topramezone 200 g ai/ha (8×), 7 DAT, Table 1
# [11] = topramezone 100 g ai/ha (4x field concentration), Arabidopsis thaliana T1 plants
# [12] = topramezone 200 g ai/ha (8x field concentration), Arabidopsis thaliana T1 plants
molecule,measurement,setting,value
"AsHPPDm-F383W-02: nucleotide sequence encoding Avena sativa HPPD with F383W; vector DBN11729 (nucleic acid, AsHPPDm-F383W-02 Nucleotide Sequence, vector DBN11729) DNA: ATGCCACCTACTCCAGCTACAGCTACTGGTGCTGCTGCTGCTGCCGTTACTCCTGAGCACGCTGCCAGGTCATTCCCCAGGGTGGTTCGCGTGAACCCCAGATCTGATAGGTTCCCAGTTCTGAGCTTCCACCATGTTGAGCTGTGGTGCGCTGATGCTGCTTCTGCTGCTGGCAGGTTCTCTTTCGCTCTTGGTGCTCCACTCGCTGCTAGATCTGATCTGTCTACAGGAAATAGCGCTCATGCCTCACTCCTGCTTCGCTCAGGTGCTTTGGCCTTCCTCTTCACCGCTCCATATGCTCCCCCACCTCAGGAGGCTGCTACTGCTGCTGCTACAGCCTCCATTCCAAGCTTCTCAGCTGATGCCGCTAGAACCTTCGCTGCTGCTCATGGACTTGCCGTGAGGTCTGTTGGTGTTCGCGTGGCTGATGCTGCTGAGGCTTTCAGAGTTTCCGTTGCCGGCGGAGCTAGGCCAGCTTTCGCTCCTGCTGATTTGGGACATGGTTTCGGCCTGGCTGAGGTTGAGCTTTACGGTGACGTGGTTCTCCGCTTCGTGTCTTACCCAGATGAGACTGACCTGCCTTTCCTTCCCGGCTTCGAGAGAGTTTCCTCTCCTGGTGCCGTGGATTACGGCCTGACAAGGTTCGACCACGTGGTTGGAAACGTTCCCGAGATGGCTCCAGTGATCGATTACATGAAGGGCTTCCTTGGATTCCATGAGTTCGCCGAGTTCACTGCTGAGGACGTGGGAACCACTGAGTCCGGTTTGAACTCTGTGGTTCTCGCCAACAATTCTGAGGCTGTTTTGCTCCCTCTGAATGAGCCTGTGCATGGAACCAAGAGGAGAAGCCAGATTCAAACTTACCTGGAGTACCACGGTGGCCCTGGAGTTCAGCATATCGCCCTTGCTTCTAATGATGTGTTGCGCACACTCAGAGAGATGCGCGCCAGAACCCCCATGGGAGGTTTCGAGTTCATGGCCCCACCACAGGCTAAGTACTACGAGGGCGTTAGAAGGATTGCTGGAGACGTGTTGAGCGAGGAGCAGATCAAGGAGTGCCAAGAGCTGGGTGTTCTTGTGGATAGGGATGACCAGGGCGTTCTGCTTCAAATTTTCACTAAGCCAGTGGGCGACCGCCCTACATTCTGGCTTGAGATGATTCAAAGAATCGGCTGCATGGAGAAGGATGAGGTTGGACAGGAGTACCAAAAGGGCGGATGCGGTGGCTTCGGAAAGGGTAACTTCAGCGAGTTGTTCAAGTCAATCGAGGACTACGAGAAGAGCCTCGAGGTGAAGCAGTCAGTGGTTGCCCAAAAGTCCTGA",tolerance to mesotrione (in words),[1]; in vivo,different degrees of tolerance
same,Resistance evaluation,[1]; [4],moderately
same,Resistance evaluation,[1]; mesotrione 420 g ai/ha (4×),poorly resistant (poorly resistant plants (scores 34-67))
same,tolerance to mesotrione (resistance class),[1]; mesotrione at four-fold field concentration,poorly-resistant
same,tolerance to mesotrione (resistance class),[1]; mesotrione at two-fold field concentration,moderately-resistant
same,Classification and statistics of the grade of pesticide damage: Grade 0,[1]; [4],4
same,Classification and statistics of the grade of pesticide damage: Grade 1,[1]; [4],10
same,Classification and statistics of the grade of pesticide damage: Grade 2,[1]; [4],1
same,Classification and statistics of the grade of pesticide damage: Grade 3,[1]; [4],1
same,Classification and statistics of the grade of pesticide damage: Grade 0,[1]; mesotrione 420 g ai/ha (4×),0
same,Classification and statistics of the grade of pesticide damage: Grade 1,[1]; mesotrione 420 g ai/ha (4×),2
same,Classification and statistics of the grade of pesticide damage: Grade 2,[1]; mesotrione 420 g ai/ha (4×),14
same,Classification and statistics of the grade of pesticide damage: Grade 3,[1]; mesotrione 420 g ai/ha (4×),0
same,Scores,[1]; [4],31
same,Scores,[1]; mesotrione 420 g ai/ha (4×),63
same,tolerance to isoxaflutole (in words),[2]; in vivo,different degrees of tolerance
same,Resistance evaluation,[2]; [5],Moderately
same,Scores,[2]; [5],21
same,Grade 0 (classification and statistics of the grade of pesticide damage; number of plants),[2]; [5],6
same,Grade 1 (classification and statistics of the grade of pesticide damage; number of plants),[2]; [5],10
same,Grade 2 (classification and statistics of the grade of pesticide damage; number of plants),[2]; [5],0
same,Grade 3 (classification and statistics of the grade of pesticide damage; number of plants),[2]; [5],0
same,Resistance evaluation,[2]; [6],moderately
same,Resistance evaluation,[2]; [7],Poorly resistant
same,Scores,[2]; [7],42
same,Grade 0 (classification and statistics of the grade of pesticide damage; number of plants),[2]; [7],4
same,Grade 1 (classification and statistics of the grade of pesticide damage; number of plants),[2]; [7],4
same,Grade 2 (classification and statistics of the grade of pesticide damage; number of plants),[2]; [7],8
same,Grade 3 (classification and statistics of the grade of pesticide damage; number of plants),[2]; [7],0
same,Resistance evaluation,[2]; [8],poorly resistant (poorly resistant plants (scores 34-67))
same,tolerance to isoxaflutole (resistance class),[2]; isoxaflutole at four-fold field concentration,poorly-resistant
same,tolerance to isoxaflutole (resistance class),[2]; isoxaflutole at two-fold field concentration,moderately-resistant
same,Classification and statistics of the grade of pesticide damage: Grade 0,[2]; [6],6
same,Classification and statistics of the grade of pesticide damage: Grade 1,[2]; [6],10
same,Classification and statistics of the grade of pesticide damage: Grade 2,[2]; [6],0
same,Classification and statistics of the grade of pesticide damage: Grade 3,[2]; [6],0
same,Classification and statistics of the grade of pesticide damage: Grade 0,[2]; [8],4
same,Classification and statistics of the grade of pesticide damage: Grade 1,[2]; [8],4
same,Classification and statistics of the grade of pesticide damage: Grade 2,[2]; [8],8
same,Classification and statistics of the grade of pesticide damage: Grade 3,[2]; [8],0
same,Scores,"[2]; pesticide damage score 0-100, isoxaflutole 140 g ai/ha (2×), 7 DAT, Table 2",21
same,Scores,"[2]; pesticide damage score 0-100, isoxaflutole 280 g ai/ha (4×), 7 DAT, Table 2",42
same,Classification and statistics of the grade of pesticide damage: Grade 0,[3]; [9],16
same,Classification and statistics of the grade of pesticide damage: Grade 1,[3]; [9],0
same,Classification and statistics of the grade of pesticide damage: Grade 2,[3]; [9],0
same,Classification and statistics of the grade of pesticide damage: Grade 3,[3]; [9],0
same,Classification and statistics of the grade of pesticide damage: Grade 0,[3]; [10],16
same,Classification and statistics of the grade of pesticide damage: Grade 1,[3]; [10],0
same,Classification and statistics of the grade of pesticide damage: Grade 2,[3]; [10],0
same,Classification and statistics of the grade of pesticide damage: Grade 3,[3]; [10],0
same,Scores,"[3]; pesticide damage score 0-100, topramezone 100 g ai/ha (4×), 7 DAT, Table 1",0
same,Scores,"[3]; pesticide damage score 0-100, topramezone 200 g ai/ha (8×), 7 DAT, Table 1",0
same,Resistance evaluation,[3]; [11],Highly resistant
same,Scores,[3]; [11],0
same,Grade 0 (classification and statistics of the grade of pesticide damage; number of plants),[3]; [11],16
same,Grade 1 (classification and statistics of the grade of pesticide damage; number of plants),[3]; [11],0
same,Grade 2 (classification and statistics of the grade of pesticide damage; number of plants),[3]; [11],0
same,Grade 3 (classification and statistics of the grade of pesticide damage; number of plants),[3]; [11],0
same,Resistance evaluation,[3]; [9],highly resistant (highly resistant plants (scores 0-15))
same,Resistance evaluation,[3]; [12],Highly resistant
same,Scores,[3]; [12],0
same,Grade 0 (classification and statistics of the grade of pesticide damage; number of plants),[3]; [12],16
same,Grade 1 (classification and statistics of the grade of pesticide damage; number of plants),[3]; [12],0
same,Grade 2 (classification and statistics of the grade of pesticide damage; number of plants),[3]; [12],0
same,Grade 3 (classification and statistics of the grade of pesticide damage; number of plants),[3]; [12],0
same,Resistance evaluation,[3]; [10],highly resistant (highly resistant plants (scores 0-15))
same,tolerance to topramezone (resistance class),[3]; topramezone at four-fold or eight-fold field concentration,highly-resistant
